Assay [1] concerns the target human IL-5 protein (purchased from Beijing Yiqiao Shenzhou) (human) (UniProt P05113). As to the kind of experiment: cell-based or functional assay.
For assay [2] the target is unchanged. As to the kind of experiment: SPR Biacore T200, antibody captured on Protein A/G, IL-5 as analyte. A general note: Surface plasmon resonance follows binding to a sensor surface in real time, without labels.
In assay [3] the target is IL-5 mutant 104L to Alanine, with His-tag (human) (UniProt P05113). Put plainly: capture ELISA: His-tagged IL-5 from HEK293E supernatant captured with murine anti-His antibody, detected with Goat-anti-Human-Fc-Specific-HRP; mean of four wells.
Assay [4] concerns the target IL-5 mutant 86C to Alanine, with His-tag (human) (UniProt P05113). The assay is described as above.
The target in assay [5] is IL-5 mutant 96F to Alanine, with His-tag (human) (UniProt P05113). The assay is described as above.

Chain of Nucala (Mepolizumab) (antibody) (VH): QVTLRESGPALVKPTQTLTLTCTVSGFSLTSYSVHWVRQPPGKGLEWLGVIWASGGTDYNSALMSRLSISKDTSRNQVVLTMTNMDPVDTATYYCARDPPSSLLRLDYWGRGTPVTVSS
Chain of Nucala (Mepolizumab) (antibody) (VL): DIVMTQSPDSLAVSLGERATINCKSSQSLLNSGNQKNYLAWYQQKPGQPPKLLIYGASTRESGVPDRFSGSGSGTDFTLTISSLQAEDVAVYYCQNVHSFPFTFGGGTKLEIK

By Kd is commonly meant the free concentration of one partner at which half of the binding sites on the other are occupied at equilibrium, for simple one-to-one binding. A higher Kd goes with a looser complex. In assay [1], Nucala (Mepolizumab) (antibody) showed an IC50 for inhibiting IL-5-induced TF-1 cell proliferation (Nucala) of 70.8 ng/mL. For the same substance, the equilibrium dissociation constant (Kd) in assay [2] came out at 0.201 nM. In addition, the OD450 in assay [3] worked out at 0.109; in assay [4], 0.0967; in assay [5] it was 0.19.

Source of the values: patent US20210171621A1.
